Results reported in patent publication US20260217822A1 (SANA BIOTECHNOLOGY, published 2026).
Read-outs that look alike come from different tables or passages of the source.

T1: CD19 on CD19+ cells (Raji cells; NALM-6 tumor cells) (UniProt P15391 20-556, limits assumed)
T1 sequence (looked up): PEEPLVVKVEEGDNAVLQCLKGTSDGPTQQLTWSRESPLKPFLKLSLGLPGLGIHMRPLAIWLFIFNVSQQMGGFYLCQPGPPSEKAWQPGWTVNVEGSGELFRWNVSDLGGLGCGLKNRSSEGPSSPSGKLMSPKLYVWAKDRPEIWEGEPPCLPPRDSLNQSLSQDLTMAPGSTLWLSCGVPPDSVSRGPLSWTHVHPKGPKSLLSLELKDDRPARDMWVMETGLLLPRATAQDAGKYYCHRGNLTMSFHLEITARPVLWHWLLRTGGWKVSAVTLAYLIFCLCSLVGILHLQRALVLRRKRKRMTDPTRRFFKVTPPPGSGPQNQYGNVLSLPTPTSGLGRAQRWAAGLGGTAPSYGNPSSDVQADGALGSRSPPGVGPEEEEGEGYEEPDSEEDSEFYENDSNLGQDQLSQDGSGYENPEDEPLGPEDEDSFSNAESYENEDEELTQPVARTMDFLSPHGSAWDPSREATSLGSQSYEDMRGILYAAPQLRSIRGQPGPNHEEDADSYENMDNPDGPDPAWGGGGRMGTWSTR

T2: recombinant CD19 (UniProt P15391 20-291, limits assumed)
T2 construct: also called Cluster of Differentiation 19; B-lymphocyte antigen CD19
T2 sequence (looked up): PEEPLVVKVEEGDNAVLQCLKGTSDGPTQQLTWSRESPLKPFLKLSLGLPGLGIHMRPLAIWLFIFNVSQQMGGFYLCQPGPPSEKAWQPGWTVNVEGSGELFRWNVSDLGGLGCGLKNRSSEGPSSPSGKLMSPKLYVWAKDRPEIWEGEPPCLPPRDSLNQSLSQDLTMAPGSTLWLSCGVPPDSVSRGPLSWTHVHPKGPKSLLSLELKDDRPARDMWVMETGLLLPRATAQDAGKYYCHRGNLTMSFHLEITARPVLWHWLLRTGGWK

B1: CAR 400 (VH-VL) CD19 chimeric antigen receptor (receptor)
chain: EVQLVQSGAEVKKPGESLKISCKGSGYSFTSYWIGWVRQMPGKGLEWMGIIYPGDSDTRYSPSFQGQVTISADKSISTAYLQWSSLKASDTAMYYCARLPFVGATTGGFDYWGQGTLVTVSSGGGGSGGGGSGGGGSQSVVTQPASVSGSPGQSITISCTGTSSDVGGYNYVSWYQQHPGKAPKLVIYEVSNRPSGVSNRFSGSKSGNTASLTISGLQAEDEADYYCSSYTSSSTLVFGGGTKLTVLTTTPAPRPPTPAPTIASQPLSLRPEACRPAAGGAVHTRGLDFACDIYIWAPLAGTCGVLLLSLVITLYCKRGRKKLLYIFKQPFMRPVQTTQEEDGCSCRFPEEEEGGCELRVKFSRSADAPAYQQGQNQLYNELNLGRREEYDVLDKRRGRDPEMGGKPRRKNPQEGLYNELQKDKMAEAYSEIGMKGERRRGKGHDGLYQGLSTATKDTYDALHMQALPPR
B2: CD19 Binder 3 (scFv, V domains shown)
VH: EVQLVQSGAEVKKPGESLKISCKGSGYSFTSYWIGWVRQMPGKGLEWMGIIYPGDSDTRYSPSFQGQVTISADKSISTAYLQWSSLKASDTAMYYCARLPFVGATTGGFDYWGQGTLVTVSS
VL: QSVVTQPASVSGSPGQSITISCTGTSSDVGGYNYVSWYQQHPGKAPKLVIYEVSNRPSGVSNRFSGSKSGNTASLTISGLQAEDEADYYCSSYTSSSTLVFGGGTKLTVL
B3: CD19 Binder 2 (scFv, V domains shown)
VH: EVHLVESGGGLVQPGGSLRLSCAASGFTFSDYYMSWIRQAPGKGLEWVSYISSSGSTTYYADSVKGRFTISRDNAKNSLYLQMNSLRAEDTAVYYCARVEGWSLLDYWGQGTLVTVSS
VL: QSVLTQPPSVSAAPGQKVTMSCSGSSSNIGNNYVSWYQQLPGTAPKLLIYDNNKRPSGIPDRFSGSKSGTSATLGITGLQTGDEADYYCGTWDSSLGAVVFGGGTKVTVL
B4: CD19 Binder 1 (scFv, V domains shown)
VH: EVQLVESGGGLIQPGGSLRLSCAASGFTVSSNYMSWVRQAPGKGLEWVSVIYSGGSTYYADSVKGRFTISRDNSKNTLYLQMNSLRAEDTAVYYCARDGGLDTLYGMDVWGQGTTVTVSS
VL: QSVVTQPPSVSGAPGQRVTISCTGSSSNIGAGYDVHWYQQLPGTAPKLLIYGNSNRPSGVPDRFSGSKSGTSASLAITGLQAEDEADYYCQSYDSSLSGSYVFGTGTKVTVL

Key:
[1] = target: T1, CD19 on CD19+ cells (Raji cells; NALM-6 …); experiment: cell-based or functional assay
recombinant CD19 [2] = target: T2, recombinant CD19; experiment: ELISA on recombinant CD19, OD at 405 nm
[3] = target: T1, CD19 on CD19+ cells (Raji cells; NALM-6 …); experiment: flow cytometry, binder incubated with CD19+ Raji cells
recombinant CD19 [4] = target: T2, recombinant CD19; experiment: ELISA on recombinant CD19, OD at 405 nm against antibody concentration
recombinant CD19 [5] = target: T2, recombinant CD19; experiment: as above; remark: listed apart in the source
recombinant CD19 [6] = target: T2, recombinant CD19; experiment: as above; remark: listed apart in the source

Binder	NALM-6 survival percentage after 24-hour co-culture with hypoimmune CAR T cells, E:T ratio of 1:32 (luciferase read-out) [1]	EC50 (recombinant CD19 [2])	EC50 [3]	EC50 (read off the curve) (recombinant CD19 [4])	EC50 (read off the curve) (recombinant CD19 [5])	EC50 (read off the curve) (recombinant CD19 [6])
B1	< 20%	–	–	–	–	–
B2	–	0.044 mg/L	1.2 mg/L	~0.04 mg/L	–	–
B3	–	0.27 mg/L	0.073 mg/L	–	~0.3 mg/L	–
B4	–	0.099 mg/L	0.041 mg/L	–	–	~0.1 mg/L
